The record followed here is article PMC2818599.

The assay has as its target HLA-DR DRB1 *1101 (human). Briefly: radioligand binding.

By IC50 is commonly meant the concentration at which inhibition is half-maximal. High values mean weaker potency in that assay, low ones greater potency in that assay. Take HER-2/neu.59 (peptide): the IC50 was 30 nM.
